Measurements reported in US20110158992A1 (SCHERING, published 2011).
Changes are numbered by the printed parent chain. Names may count otherwise.

B1: chimeric 8B10 Fab, VL N31del (Fab, V domains shown)
VH: EVKLVESGGGLEQPKGSLKLSCTVSGFDFNSYGMSWVRQAPGKGLDLVADINSKSYNYATYYADSVKDRFTISRDDSQSMVYLEMDNLKTEDTALYYCTVHHSDYFEYWGQGVMVTVSS
VL: DIQMTQSPASLSASLGETVSIECLASEDIYNLAWYQQKPGKSPQLLIYHASSLQDGVPSRFSGSGSGTQYSLKINSLESEDAATYFCLQDSEYPPTFGGGTKLELK
notes: Rat V domains with human CH1 and CL; E. coli periplasmic extract
B2: chimeric 8B10 Fab, VL Y94A (Fab, V domains shown)
VH: B1 VH
VL: DIQMTQSPASLSASLGETVSIECLASEDIYNNLAWYQQKPGKSPQLLIYHASSLQDGVPSRFSGSGSGTQYSLKINSLESEDAATYFCLQDSEAPPTFGGGTKLELKR
notes: as for B1
B3: humanized anti-human IL-23R antibody hu8B10-b (antibody, V domains shown)
VH: QVQLVESGGGVVQPGRSLRLSCAASGFDFNSYGMSWVRQAPGKGLDLVADINSKSYNYATYYADSVKDRFTISRDNSKNTLYLQMNSLRAEDTAVYYCAVHHSDYFEYWGQGTLVTVSS
VL: DIQMTQSPSSLSASVGDRVTITCRASQDIYTNLAWYQQKPGKAPKLLIYHASSLQDGVPSRFSGSGSGTDYTLTISSLQPEDFATYYCLQDSEYPPTFGQGTKVEIKR
B4: hu8B10-b variant, VH N30D (antibody, V domains shown)
VH: B3 VH with N30D
VL: B3 VL
notes: also called VH: 8B10-b N30D / VL: 8B10-b
B5: hu8B10-b variant, VL N32S (antibody, V domains shown)
VH: B3 VH
VL: B3 VL with N32S
notes: also called VH: 8B10-b / VL: 8B10-b N32S
B6: hu8B10-b variant, VL D56S (antibody, V domains shown)
VH: B3 VH
VL: B3 VL with D56S
notes: also called VH: 8B10-b / VL: 8B10-b D56S
B7: hu8B10-b variant, VH N57S (antibody, V domains shown)
VH: B3 VH with N57S
VL: B3 VL
notes: also called VH: 8B10-b N57S / VL: 8B10-b
B8: hu8B10-b variant, VH N57D (antibody, V domains shown)
VH: B3 VH with N57D
VL: B3 VL
notes: also called VH: 8B10-b N57D / VL: 8B10-b
B9: hu8B10-b variant, VH N30S (antibody, V domains shown)
VH: B3 VH with N30S
VL: B3 VL
notes: also called VH: 8B10-b N30S / VL: 8B10-b
B10: humanized anti-human IL-23R antibody hu8B10-c (antibody, V domains shown)
VH: B3 VH with N30S
VL: B3 VL with D56S
notes: 8B10-b with VL D56S and VH N30S
B11: hu8B10-b variant, VH N52D (antibody, V domains shown)
VH: B3 VH with N52D
VL: B3 VL
notes: also called VH: 8B10-b N52D / VL: 8B10-b
B12: antibody with hu8B10-b VH and hu8B10 VL N31T (antibody, V domains shown)
VH: B3 VH
VL: B3 VL with R24L, Q27E, Y71F
notes: also called VH: hu8B10-b / VL: hu8B10 N31T
B13: hu8B10-b variant, VL D56E (antibody, V domains shown)
VH: B3 VH
VL: B3 VL with D56E
notes: also called VH: 8B10-b / VL: 8B10-b D56E
B14: hu8B10-b variant, VH N52S (antibody, V domains shown)
VH: B3 VH with N52S
VL: B3 VL
notes: also called VH: 8B10-b N52S / VL: 8B10-b
B15: antibody with hu8B10 VH and hu8B10 VL N31T (antibody, V domains shown)
VH: B3 VH with D46E, L47W, V100R
VL: B3 VL with R24L, Q27E, Y71F
notes: also called VH: hu8B10 / VL: hu8B10 N31T
B16: chimeric 8B10 Fab, VH Y105A (Fab, V domains shown)
VH: B1 VH with Y105A
VL: B2 VL with A94Y
notes: as for B1
B17: chimeric 8B10 Fab, VL D28A (Fab, V domains shown)
VH: B1 VH
VL: B2 VL with D28A, A94Y
notes: as for B1
B18: chimeric 8B10 Fab, VL N31T (Fab, V domains shown)
VH: B1 VH
VL: B2 VL with N31T, A94Y
notes: as for B1
B19: chimeric 8B10 Fab, VL D91A (Fab, V domains shown)
VH: B1 VH
VL: B2 VL with D91A, A94Y
notes: as for B1
B20: chimeric 8B10 Fab, VL E93A (Fab, V domains shown)
VH: B1 VH
VL: B2 VL with E93A, A94Y
notes: as for B1
B21: chimeric 8B10 Fab, VL Y30A (Fab, V domains shown)
VH: B1 VH
VL: B2 VL with Y30A, A94Y
notes: as for B1
B22: chimeric 8B10 Fab, VL N31A (Fab, V domains shown)
VH: B1 VH
VL: B2 VL with N31A, A94Y
notes: as for B1
B23: chimeric 8B10 Fab, VL Y49A (Fab, V domains shown)
VH: B1 VH
VL: B2 VL with Y49A, A94Y
notes: as for B1
B24: chimeric 8B10 Fab, VL S53A (Fab, V domains shown)
VH: B1 VH
VL: B2 VL with S53A, A94Y
notes: Rat V domains with human CH1 and CL; E. coli periplasmic extract; also called S53A (light chain variable domain)
B25: chimeric 8B10 Fab, VL N32A (Fab, V domains shown)
VH: B1 VH
VL: B2 VL with N32A, A94Y
notes: as for B1
B26: chimeric 8B10 Fab, VL E27A (Fab, V domains shown)
VH: B1 VH
VL: B2 VL with E27A, A94Y
notes: as for B1
B27: chimeric 8B10 Fab, VL S92A (Fab, V domains shown)
VH: B1 VH
VL: B2 VL with S92A, A94Y
notes: as for B1
B28: chimeric 8B10 Fab, VL H50A (Fab, V domains shown)
VH: B1 VH
VL: B2 VL with H50A, A94Y
notes: as for B1

target: T1, biotinylated huIL-23R-IgG (human, UniProt Q5VWK5 24-353, biotinylated); experiment: ECL binding assay, Binding (% of w.t.)
T1 construct: not shown: human IgG1 Fc
T1 sequence: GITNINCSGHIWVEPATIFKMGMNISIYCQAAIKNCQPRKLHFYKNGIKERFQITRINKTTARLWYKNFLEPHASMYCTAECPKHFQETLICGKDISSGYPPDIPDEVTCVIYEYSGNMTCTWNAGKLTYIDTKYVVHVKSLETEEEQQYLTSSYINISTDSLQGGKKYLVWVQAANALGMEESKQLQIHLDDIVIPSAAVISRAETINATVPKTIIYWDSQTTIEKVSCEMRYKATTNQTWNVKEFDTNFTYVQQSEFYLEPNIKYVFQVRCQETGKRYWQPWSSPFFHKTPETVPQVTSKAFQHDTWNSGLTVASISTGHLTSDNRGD
Description: (§1) The N31T change was introduced as a result of affinity maturation experiments, as follows. An E. coli expression vector for expression into the periplasmic space was constructed encoding a chimeric Fab fragment of rat antibody 8B10 comprising rat variable domains, a human constant light chain domain (CL) and a human constant heavy chain domain CH1. Mutations were introduced using a QuikChange® site directed mutagenesis kit (Stratagene Inc., LaJolla, Calif., USA). Primers were designed to replace selected positions with either alanine, or by all 20 amino acids, using the NNK codon approach (N includes an equimolar mix of A/G/C/T and K includes only G/T). To reduce background, alanine mutants at each position were used as the template for the randomization step. Unpurified periplasmic extracts were then tested for human IL-23R binding activity using an electrochemiluminescence assay with biotinylated huIL-23R-IgG and goat anti-huFab-Ori-Tag for detection. The area under the curve was used to compare the binding activity of sequence variants to the original parental 8B10 Fab. Data were fitted using GraphPad Prism® 3.0 software (Graphpad Software inc., San Diego, Calif. USA).

Binder | binding result
B1 | no binding
B2 | no binding

target: T2, human IL-23R (human, UniProt Q5VWK5 24-353, limits assumed); experiment: BIAcore SPR, antibody immobilised
T2 construct: also called huIL-23R; human interleukin-23R
T2 sequence: T1 sequence
Method: BIAcore® label-free interaction analysis system determinations are performed essentially as described at Example 4 of U.S. Patent Application Publication No. 2007/0048315, which is hereby incorporated by reference. Briefly, ligands (anti-IL-23R mAbs) are immobilized on a BIAcore® label-free interaction analysis system CM5 sensor chip using standard amine-coupling procedure. Kinetic constants for the various interactions are determined using BIAevaluation software 3.1. The Kd is determined using the calculated dissociation and association rate constants.
Several sequence variants intended to increase the chemical stability of hu8B10-b were produced to evaluate their effects on binding affinity. Kd values are provided at Table 3. Binding to human IL-23R was determined using the BIAcore® label-free interaction analysis system (surface plasmon resonance), essentially as described in Example 4 (supra). Chimeric forms, designated as “chim,” refers to rat variable domains linked to human IgG1 heavy chain and human kappa light chain constant domains, e.g., as presented at SEQ ID NOs: 16 and 17, respectively, or as at SEQ ID NOs: 22 and 23, respectively. Sequences for heavy and light chain variable domains are provided at FIGS. 1 and 2, and in the Sequence Listing (as described at Table 4). Antibodies incorporate the sequence changes recited in the table (“Variant(s)”) for the respective heavy and light chains. Data arc presented as mean±standard deviation for multiple determinations, and without error estimates for single determinations.

Binder | Kd [nM] | binding result
B3 | 0.154 | –
B4 | 0.114 | –
B5 | 19.2 | –
B6 | 0.187 | –
B7 | 0.382 | –
B8 | 0.22 | –
B9 | 0.168 | –
B10 | 0.18 | –
B11 | – | no binding
B12 | 5.38 | –
B13 | 0.179 | –
B14 | 0.444 | –
B15 | – | no binding

target: T1, biotinylated huIL-23R-IgG; experiment: ECL binding assay, periplasmic Fab extracts, biotinylated huIL-23R-IgG; AUC vs parental 8B10 Fab
Description: as §1

Binder | Binding (% of w.t.)
B16 | 18.3 % of w.t.
B17 | 93.1 % of w.t.
B18 | 129 % of w.t.
B19 | 5.6 % of w.t.
B20 | 62.8 % of w.t.
B21 | 3.2 % of w.t.
B22 | 117 % of w.t.
B23 | 62.4 % of w.t.
B24 | 85 % of w.t.
B25 | 13.4 % of w.t.
B26 | 96.2 % of w.t.
B27 | 68.4 % of w.t.
B28 | 62.2 % of w.t.
